The assay has as its target RIR1-GFP (ProRIR1:RIR1-GFP in the rir1-1 mutant) (Arabidopsis thaliana) (UniProt C0LGG9). In words: FRET or BRET. Background: BRET reads energy transfer from a luciferase to a nearby fluorophore.
Chain of UniProt C0LGG9 (C0LGG9 27-1035, change not shown): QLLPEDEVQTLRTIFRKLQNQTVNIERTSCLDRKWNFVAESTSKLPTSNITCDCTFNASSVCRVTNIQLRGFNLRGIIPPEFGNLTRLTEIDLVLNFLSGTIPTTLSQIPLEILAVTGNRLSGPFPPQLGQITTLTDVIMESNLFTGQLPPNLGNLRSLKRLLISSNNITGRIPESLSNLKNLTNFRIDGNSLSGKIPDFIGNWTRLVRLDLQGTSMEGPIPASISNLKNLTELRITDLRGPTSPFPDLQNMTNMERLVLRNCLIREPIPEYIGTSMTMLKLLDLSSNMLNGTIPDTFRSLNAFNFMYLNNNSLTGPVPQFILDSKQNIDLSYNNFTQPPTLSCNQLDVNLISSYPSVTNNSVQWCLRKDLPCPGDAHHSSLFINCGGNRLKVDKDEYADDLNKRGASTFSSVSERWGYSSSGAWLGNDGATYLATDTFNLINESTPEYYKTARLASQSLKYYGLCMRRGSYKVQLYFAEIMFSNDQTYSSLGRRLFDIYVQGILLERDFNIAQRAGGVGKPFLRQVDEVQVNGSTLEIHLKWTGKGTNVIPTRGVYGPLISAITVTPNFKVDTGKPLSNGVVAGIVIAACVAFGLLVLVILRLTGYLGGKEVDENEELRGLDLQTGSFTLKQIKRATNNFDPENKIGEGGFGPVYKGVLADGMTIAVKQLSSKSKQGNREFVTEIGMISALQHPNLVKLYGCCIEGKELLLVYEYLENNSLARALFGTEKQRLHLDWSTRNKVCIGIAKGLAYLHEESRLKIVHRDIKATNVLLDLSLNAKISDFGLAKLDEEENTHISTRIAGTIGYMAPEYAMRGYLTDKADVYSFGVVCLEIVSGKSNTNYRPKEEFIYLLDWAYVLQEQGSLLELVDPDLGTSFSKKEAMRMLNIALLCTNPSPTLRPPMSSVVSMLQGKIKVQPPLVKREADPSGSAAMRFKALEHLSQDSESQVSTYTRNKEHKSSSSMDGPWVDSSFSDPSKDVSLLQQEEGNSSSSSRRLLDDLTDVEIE

On to “mCherry-REM1.2 (ProREM1.2-mCherry-REM1.2 in rir1-1/RIR1-GFP#3) (from UniProt P0CAP4 1-446) (natural protein)”, for which the GFP donor fluorescence lifetime with acceptor (τDA) was 2.21 ns.

For the origin of these results see article doi:10.1101/2021.01.28.428596.
